# In US20080050374A1 (AMBRX, published 2008):
# Numbering of substitutions follows the chain as printed.
# B1: pAcF-scFv-108-(S136) (scFv)
# scFv: QVQLQQSGAELMKPGASVKISCKATGYTFSSYWIEWVKQRPGHGLEWIGEILPGSKKTNYNEKFKGKATFTADTSSNTAYMQFSSLTSEDSAVYYCARYYYRNDDYGMDYWGQGTSVTVSSGGGGSGGGGSGGGGXGGGGSEIHMTQTTSSLSASLGDRVTISCSASQDIRNYLNWYQQKPDGTVKLLIYYTSTLHSGVPSRFSGSGSGTDYSLTISNLEPEDIATYYCQQYSKIPYTFTGGTKLEIKRADAAEQKLISEEDLNSAVDHHHHHH
# modifications: p-acetyl-phenylalanine (pAcF) in place of Ser136
# notes: X stands for pAcF; also called Ser136pAcF; pAcF-scFv-(S136)
# B2: pAcF-scFv-108-(S136) conjugated to 5K PEG (scFv)
# scFv: B1 scFv
# modifications: p-acetyl-phenylalanine (pAcF) in place of Ser136, conjugated to mono-functional hydroxylamine 5K PEG
# notes: also called Ser136pAcF-5K PEG
# B3: pAcF-scFv-108-(L156) (scFv)
# scFv: B1 scFv with X136S, L156X
# modifications: p-acetyl-phenylalanine (pAcF) in place of Leu156
# notes: L156 lies in the VL chain; X stands for pAcF; also called Leu156pAcF
# B4: pAcF-scFv-108-(L156) conjugated to 5K PEG (scFv)
# scFv: B1 scFv with X136S, L156X
# modifications: p-acetyl-phenylalanine (pAcF) in place of Leu156, conjugated to mono-functional hydroxylamine 5K PEG
# notes: also called Leu156pAcF-5K PEG
# B5: scFv-108 Tyr190pAcF (scFv)
# scFv: B1 scFv with X136S, Y190X
# modifications: p-acetyl-phenylalanine (pAcF) in place of Tyr190
# notes: X stands for pAcF
# B6: scFv-108 Ser193pAcF (scFv)
# scFv: B1 scFv with X136S, S193X
# modifications: p-acetyl-phenylalanine (pAcF) in place of Ser193
# notes: X stands for pAcF
# B7: scFv-108 Lys248pAcF (scFv)
# scFv: B1 scFv with X136S, K248X
# modifications: p-acetyl-phenylalanine (pAcF) in place of Lys248
# notes: X stands for pAcF
# B8: scFv-108 Ser259pAcF (scFv)
# scFv: B1 scFv with X136S, S259X
# modifications: p-acetyl-phenylalanine (pAcF) in place of Ser259
# notes: X stands for pAcF
# B9: scFv-108 wild type (periplasmic, VH-(GGGGS)4-VL-myc-6xHis) (scFv)
# scFv: B1 scFv with X136S
# notes: also called WT scFv
# B10: pAcF-scFv-108-(S131) (scFv)
# scFv: B1 scFv with S131X, X136S
# modifications: p-acetyl-phenylalanine (pAcF) in place of Ser131
# notes: S131 is the second serine of the GlySer linker; X stands for pAcF; also called Ser131pAcF; S131Am
# B11: pAcF-scFv-108-(S131) conjugated to 5K PEG (scFv)
# scFv: B1 scFv with S131X, X136S
# modifications: p-acetyl-phenylalanine (pAcF) in place of Ser131, conjugated to mono-functional hydroxylamine 5K PEG
# notes: also called Ser131pAcF-5K PEG
# B12: scFv-108 His144pAcF (scFv)
# scFv: B1 scFv with X136S, H144X
# modifications: p-acetyl-phenylalanine (pAcF) in place of His144
# notes: X stands for pAcF
# B13: Fab-108 wild type (Fab)
# light: TMELEIHMTQTTSSLSASLGDRVTISCSASQDIRNYLNWYQQKPDGTVKLLIYYTSTLHSGVPSRFSGSGSGTDYSLTISNLEPEDIATYYCQQYSKIPYTFTGGTKLEIKRADAAKLEIKRTVAAPSVFIFPPSDEQLKSGTASVVCLLNNFYPREAKVQWKVDNALQSGNSQESVTEQDSKDSTYSLSSTLTLSKADYEKHKVYACEVTHQGLSSPVTKSFNRGEC
# heavy: QVQLLEQVQLQQSGAELMKPGASVKISCKATGYTFSSYWIEWVKQRPGHGLEWIGEILPGSKKTNYNEKFKGKATFTADTSSNTAYMQFSSLTSEDSAVYYCARYYYRNDDYGMDYWGQGTSVTVSSAGPSVFPLAPSSKSTSGGTAALGCLVKDYFPEPVTVSWNSGALTSGVHTFPAVLQSSGLYSLSSVVTVPSSSLGTQTYICNVNHKPSNTKVDKKVEPKSCDKHHHHHH
# notes: they may include leaders; also called WT Fab; Fab108 WT
# Target: T1, EGF receptor (on A431 cells) (UniProt P00533 25-1210, limits assumed)
# T1 construct: whole, on cells; also called EGF receptors
# Experiment: Flow cytometry competition on A431 cells expressing EGF receptors: cells incubated with the scFv at varied concentration and washed, then mAb108 (competitor, 7.5 nM) detected with APC-labeled anti-mouse antibody; y axis Median
# Experimental: (§1) Unbound scFv proteins were removed by washing following centrifugation (repeated 2-3 times). […] After two washes, the cells were incubated with an APC-labeled (allophycocyanin) anti-mouse antibody (10 ug/ml) for 30 minutes on ice. After washing the cells two times to remove the secondary antibody, the cells were re-suspended in FACS buffer supplemented with propidium iodine (0.5 ug/ml), and analyzed by flow cytometry. […] Fab binding was detected using an anti-His antibody followed by an APC-labeled anti-mouse secondary antibody.
# (§2) Cells were incubated with the scFv proteins at various concentrations after washing to remove unbound scFv's, and the cells were treated with the mAb108 as described above. All proteins were expressed in the periplasm. Table 11 summarizes the binding of the modified scFv's (pAcF and pAcF with PEG) relative to the wild type scFv: […]
row,Binder,IC50 [nM]
1,B1,13.1
2,B2,51

# Target: T1, EGF receptor (on A431 cells)
# Experiment: competition flow cytometry on A431 cells against mAb-108 (7.5 nM)
# Experimental: as §1, §2
Binder,IC50 relative to wild type scFv [x],IC50 [nM]
B1,1.6,–
B2,6.3,–
B3,1.8,–
B4,2.9,–
B5,2.1,–
B6,1.8,–
B7,2.1,–
B8,0.5,–
B9,1,8.1
B10,1.3,–
B11,5,–
B12,2.6,–

# Target: T1, EGF receptor (on A431 cells)
# Experiment: flow cytometry on A431 cells; Fab detected with anti-His antibody and APC-labeled anti-mouse antibody
# Experimental: as §1
# PEGylation of the Fab fragments results in a minimal decrease in the affinity of the fragments to the EGF receptors. Binding conditions were as described previously.
Binder,EC50 [nM],EC50 relative to wild type Fab [x]
B13,4,1
